Target: the molecule itself
Assay: SEC; analytical size exclusion chromatography (Superdex 5/150 column) on 50 µl of sample after the Ni-affinity step

B1: wild type human Glutaminyl Cyclase (hQPCT), Ala33-Leu361, His6-tagged (enzyme, UniProt Q16769 33-361, looked up)
chain: ASAWPEEKNYHQPAILNSSALRQIAEGTSISEMWQNDLQPLLIERYPGSPGSYAARQHIMQRIQRLQADWVLEIDTFLSQTPYGYRSFSNIISTLNPTAKRHLVLACHYDSKYFSHWNNRVFVGATDSAVPCAMMLELARALDKKLLSLKTVSDSKPDLSLQLIFFDGEEAFLHWSPQDSLYGSRHLAAKMASTPHPPGARGTSQLHGMDLLVLLDLIGAPNPTFPNFFPNSARWFERLQAIEHELHELGLLKDHSLEGRYFQNYSYGGVIQDDHIPFLRRGVPVLHLIPSPFPEVWHTMDDNEENLDESTIDNLNKILQVFVLEYLHL
notes: human glutaminyl-peptide cyclotransferase (glutaminyl cyclase), residues Ala33-Leu361, cloned in pQE80L; Not glycosylated (E. coli); Apo-protein mass by MALDI 38735 Da; No preparative size exclusion step was applied to the wild type; also called wild type hQPCT; Glutaminyl-peptide Cyclotransferase; not shown: His6, N-terminal, kept
- binding result: binds
